Reference: paper PMC8163392, “Interrogating surface versus intracellular transmembrane receptor populations using cell-impermeable SNAP-tag substrates†” (Chemical Science, 2020)

Biological target: the molecule itself
Assay: single molecule pulldown (SiMPull) with counting of photobleaching steps; surface receptors labelled on live cells with 1 uM SBG-JF549; cells lysed in 1.2% IGEPAL, lysate diluted in 0.1% IGEPAL; receptors captured at low density by biotinylated anti-HA antibody on NeutrAvidin/PEG coverslips; TIRF imaging

B1: HA-SNAP-metabotropic glutamate receptor 2 (receptor, UniProt P31421 19-872, looked up)
chain: EGPAKKVLTLEGDLVLGGLFPVHQKGGPAEECGPVNEHRGIQRLEAMLFALDRINRDPHLLPGVRLGAHILDSCSKDTHALEQALDFVRASLSRGADGSRHICPDGSYATHSDAPTAVTGVIGGSYSDVSIQVANLLRLFQIPQISYASTSAKLSDKSRYDYFARTVPPDFFQAKAMAEILRFFNWTYVSTVASEGDYGETGIEAFELEARARNICVATSEKVGRAMSRAAFEGVVRALLQKPSARVAVLFTRSEDARELLAATQRLNASFTWVASDGWGALESVVAGSERAAEGAITIELASYPISDFASYFQSLDPWNNSRNPWFREFWEERFHCSFRQRDCAAHSLRAVPFEQESKIMFVVNAVYAMAHALHNMHRALCPNTTHLCDAMRPVNGRRLYKDFVLNVKFDAPFRPADTDDEVRFDRFGDGIGRYNIFTYLRAGSGRYRYQKVGYWAEGLTLDTSFIPWASPSAGPLPASRCSEPCLQNEVKSVQPGEVCCWLCIPCQPYEYRLDEFTCADCGLGYWPNASLTGCFELPQEYIRWGDAWAVGPVTIACLGALATLFVLGVFVRHNATPVVKASGRELCYILLGGVFLCYCMTFVFIAKPSTAVCTLRRLGLGTAFSVCYSALLTKTNRIARIFGGAREGAQRPRFISPASQVAICLALISGQLLIVAAWLVVEAPGTGKETAPERREVVTLRCNHRDASMLGSLAYNVLLIALCTLYAFKTRKCPENFNEAKFIGFTMYTTCIIWLAFLPIFYVTSSDYRVQTTTMCVSVSLSGSVVLGCLFAPKLHIILFQPQKNVVSHRAPTSRFGSAAPRASANLGQGSGSQFVPTVCNGREVVDSTTSSL
modifications: JF549 (two-colour experiment: JF549 or JF646) covalently attached to the SNAP-tag
notes: metabotropic glutamate receptor 2 (mGluR2), class C GPCR; The rat receptor is my surmise; also called HA-SNAP-mGluR2; SNAP-mGluR2; source: HEK 293T, transfected, in lysate (1.2% IGEPAL); not shown: SNAP-tag, N-terminal, kept
B1 was tested, and the “stoichiometry N” value was 2.
